The chains are these.
B1: α/β-SARS2 HRC QE-6 (peptide)
peptide: DISQINASVVNIEYEIKKLEEVAXKLEESLIDLQELGSGSGC
modifications: not fully specified (C-terminus); also: α/β-peptide, β-residue positions not given here, alias: peg4 chol conjugate
B2: α/β-SARS2 HRC QE-7 (peptide)
peptide: DISQINASVVNIEYEIXKLEEVAXKLEESLIDLQELGSGSGC
modifications: not fully specified (C-terminus); also: α/β-peptide, β-residue positions not given here, alias: peg4 chol conjugate
B3: α/β-SARS2 HRC QE-8 (peptide)
peptide: DISQINASVVNIEYEIXKLEEVAXKLEESLIDLQELGSGSGC
modifications: not fully specified (C-terminus); also: α/β-peptide, β-residue positions not given here, alias: peg4 chol conjugate
B4: α/β-SARS2 HRC QE-5 (peptide)
peptide: DISQINASVVNIEYEIXKLEEVAKKLEESLIDLQELGSGSGC
modifications: not fully specified (C-terminus); also: α/β-peptide, β-residue positions not given here, alias: peg4 chol conjugate
B5: α/β-SARS2 HRC QE-17 (peptide)
peptide: DISQINASVVNIEYEIXKLEEVAXKLEESLIDLQELGSGSGC
modifications: not fully specified (C-terminus); also: α/β-peptide, β-residue positions not given here
B6: α/β-SARS2 HRC QE-15 (peptide)
peptide: DISQINASVVNIEYEIXKLEEVAXKLEESLIDLQELGSGSGC
modifications: not fully specified (C-terminus); also: α/β-peptide, β-residue positions not given here

No end group written: not given here.

The first assay concerns the target SARS-CoV-2 Spike protein (SARS-CoV-2), P0DTC2. In words: cell-based or functional assay.
As for B1, the inhibition of S-mediated cell-cell fusion (β-Gal complementation), IC50 was found to be 0.02 µM and the inhibition of S-mediated cell-cell fusion (β-Gal complementation), IC90 was determined as 0.1 µM.

As for B2, the inhibition of S-mediated cell-cell fusion (β-Gal complementation), IC50 turned out to be 0.02 µM and the inhibition of S-mediated cell-cell fusion (β-Gal complementation), IC90 came out at 0.1 µM.

In the case of B3, the inhibition of S-mediated cell-cell fusion (β-Gal complementation), IC50 was determined as 0.1 µM.

Take B4: the inhibition of S-mediated cell-cell fusion (β-Gal complementation), IC50 is 1 µM.

A further assay shares this target. In words: cell-based or functional assay. This is another data set of the same source.
Take B5: the inhibition of S-mediated cell-cell fusion (β-Gal complementation), IC50 was determined as 0.01 µM.

In turn, B2 displayed an inhibition of S-mediated cell-cell fusion (β-Gal complementation), IC50 of 0.01 µM.

For the molecule B6, the inhibition of S-mediated cell-cell fusion (β-Gal complementation), IC50 stood at 0.05 µM.

These data come from patent US20260232759A1, “PEPTIDES THAT INHIBIT INFECTION BY SARS-COV-2, THE VIRUS THAT CAUSES COVID-19 DISEASE” (Wisconsin Alumni Research Foundation, priority 2021, published 2026).
